Changes are numbered by the printed parent chain.
Legend:
[1] = molecular target: T1, bacterially-expressed hSOD1 (human, UniProt P00441 2-154); test: Octet QK, hSOD1 coupled to biosensor, antibody in solution
T1 construct: Not fully metallated, expected to be partly misfolded; also called b-hSOD1; GST-b-hSOD1; not shown: N-terminal glutathione sulfotransferase (GST) domain from vector pGEX-4T-3

[2] = molecular target: T2, hSOD1 purified from human erythrocytes (human, UniProt P00441 2-154); test: as above
T2 construct: Bought from Sigma; also called E-hSOD1
Description: Affinity of antibodies was determined using an Octet QK (ForteBio) biomolecular interaction instrument. […] The Octet QK uses biosensors to assess mass increases/decreases and determine rates of association and disassociation. A biosensor coated with amine-reactive chemistry was introduced into a solution containing E-hSOD1 or b-hSOD1 to covalently link these proteins to the surface of the biosensor. Unbound hSOD1 was washed away and the coated biosensor was introduced into a solution containing anti-SOD1 monoclonal antibodies at which time Kₒₙ was determined. The sensor was then introduced into a buffer solution containing no antibody and the Koff determined Using Kₒₙ and Koff an affinity (KD) was calculated.
Affinity analysis was performed on all 13 lead-candidate anti-hSOD1 human monoclonal antibodies.

[3] = molecular target: T3, b-hSOD1-I (amino acids 39 to 116) (human, UniProt P00441 39-117); test: ELISA, captured b-hSOD1 truncations
T3 construct: also called I truncation; not shown: N-terminal thioredoxin (trx) domain from vector pET32-a-myc; C-terminal myc and 6 histidine tags

[4] = molecular target: T4, b-hSOD1-B (amino acids 1 to 77) (human, UniProt P00441 2-78); test: ELISA, captured b-hSOD1 truncations
T4 construct: also called B truncation; not shown: N-terminal thioredoxin (trx) domain from vector pET32-a-myc; C-terminal myc and 6 histidine tags

[5] = molecular target: T5, b-hSOD1-D (amino acids 39 to 153) (human, UniProt P00441 40-154); test: ELISA, captured b-hSOD1 truncations
T5 construct: also called D truncation; not shown: N-terminal thioredoxin (trx) domain from vector pET32-a-myc; C-terminal myc and 6 histidine tags

[6] = molecular target: T6, b-hSOD1-C (amino acids 1 to 116) (human, UniProt P00441 2-117); test: ELISA, captured b-hSOD1 truncations
T6 construct: also called C truncation; not shown: N-terminal thioredoxin (trx) domain from vector pET32-a-myc; C-terminal myc and 6 histidine tags

b-hSOD1-OX = molecular target: T7, b-hSOD1-OX (oxidized with 10 mM hydrogen peroxide for 24 hours; residues not given ; Oxidised with 10 mM hydrogen peroxide for 24 hours. The oxidised residues are not stated, so the letters are left …); test: ELISA on coated protein, antibody titrated, OD 405nm
T7 construct: also called oxidized bacterially-expressed hSOD1 (GST fusion); not shown: N-terminal GST domain of pGEX-4T-3 and the vector-derived linker

[7] = molecular target: mouse SOD1 expressed in mouse neuroblastoma cells (MNA) (mouse, UniProt P08228 2-154); test: IP from mouse neuroblastoma (MNA) cell lysate, immunoblot rabbit anti-SOD1
Description: Expression of SOD1 in mouse neuroblastoma cells (MNA) was assessed by SDS-PAGE followed by immunoblot with rabbit anti-SOD1 (lysate). The position of migration of SOD1 as well as position of a non-specific high molecular weight (HMW) band is indicated to the right of the immunoblots. MNA lysates were precipitated with 11 human anti-hSOD1 antibodies as well as a control, isotype matched irrelevant antibody (Neg control) which are listed above the immunoblots.

T2 sequence (P00441 2-154): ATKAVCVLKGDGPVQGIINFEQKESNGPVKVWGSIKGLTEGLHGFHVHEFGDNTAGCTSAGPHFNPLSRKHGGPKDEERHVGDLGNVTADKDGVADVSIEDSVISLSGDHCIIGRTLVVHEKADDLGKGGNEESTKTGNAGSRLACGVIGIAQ
T1 sequence (P00441 2-154): as above
T4 sequence (P00441 2-78): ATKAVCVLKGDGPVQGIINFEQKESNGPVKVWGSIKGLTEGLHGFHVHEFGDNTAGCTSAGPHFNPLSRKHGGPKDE
T3 sequence (P00441 39-117): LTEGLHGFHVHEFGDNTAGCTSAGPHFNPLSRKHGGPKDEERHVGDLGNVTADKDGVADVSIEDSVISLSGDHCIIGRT
T5 sequence (P00441 40-154): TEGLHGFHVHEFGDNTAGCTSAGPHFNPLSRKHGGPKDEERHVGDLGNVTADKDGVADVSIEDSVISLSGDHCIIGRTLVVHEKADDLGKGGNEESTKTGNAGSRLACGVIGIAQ
T6 sequence (P00441 2-117): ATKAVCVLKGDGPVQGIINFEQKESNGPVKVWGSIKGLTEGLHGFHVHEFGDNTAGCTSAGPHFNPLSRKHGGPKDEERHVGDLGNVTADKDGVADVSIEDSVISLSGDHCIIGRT
T7 sequence (chain, as listed by the source limits assumed): as the sequence (P00441 2-154) above

B1: 303-8 (antibody, V domains shown)
VH: QVQLVQSGAEVKKPGSSVKVSCKASGGSFSIYVISWVRQAPGQGLEWMGRIIPILGTTNYAQKFQGRVTITADKSTSTAYMELSSLRSEDTAVYYCARPDSPNHSNTFDYWGQGTLVTVSS
VL: DIQMTQSPSSLSASVGDRVTITCRASQGISSWLAWYQQKPEKAPKSLIYGASSLQSGVPSRFSGSGSGTDFTLTISSLQPEDFATYYCQQYNSYPYTFGQGTKLEIK
notes: Human IgG kappa monoclonal from HuMab mouse hybridoma; Conformation-dependent antibody
[1]
  Kd: 1.2 nM
[2]
  Kd: 8.8 nM
[3]
  binding result: no binding
[4]
  binding result: no binding
[5]
  binding result: no binding
[6]
  binding result: no binding
b-hSOD1-OX
  binding result: binds

B2: 358-22 (antibody, V domains shown)
VH: QVQLVESGGGVVQPGRSLRLSCAASGFTFRSYGMHWVRQAPGKGLEWVTLIWYDGSNKYYADSVKGRFTISRDNSKNTLYLQMNSLRVEDTAVYYCAREGFNWDAFDIWGQGTMVTVSS
VL: EIVLTQSPGTLSLSPGERATLSCRASQSVRISYLAWYQQKPGQAPRLLIYGTFSRATGIPDRFSGSGSGTDFTLTISRLEPEDFAVYYCQQYGSSMYTFGQGTKLEIK
notes: as for B1
[7]
  binding result: binds

B3: 14-173 (antibody, V domains shown)
VH: EVQLVESGGGLVQPGGSLRLSCAASGFTFSSFWMSWVRQAPGKGLEWVANIKHDGSEQDYVDSVKGRFTISRDNAKNSLYLQMNSLRAEDTAVYYCARGGIWFGPWGQGTLVTVSS
VL: VIWMTQSPSLLSASTGDRVTISCRMSQGISSYLAWYQQKPGKAPEVLIYAVSTLQSGVPSRFSGSGSGTDFTLTISCLQSEDFATYYCQQYYSFPYTFGQGTKLEIK
notes: as for B1
[1]
  Kd: 19 nM
[2]
  Kd: 3.5 nM
[3]
  binding result: no binding
[4]
  binding result: no binding
[5]
  binding result: no binding
[6]
  binding result: no binding
[7]
  binding result: binds

B4: 311-3 (antibody, V domains shown)
VH: QVQLQQWGAGLLKPSETLSLTCAVYGGSFSGYYWNWIRQPPGMGLEWIGEIHQSGGPHYNPSLKSRVSISVDTSKNQVNLKLSSVTAADTAIYYCTELDDYWGQGTLVTVSS
VL: EIVLTQSPATLSLSPGERATLSCRASQSVSSYLAWYQQKPGQAPRLLIYNASNRATGIPARFSGSGSGTDFTLTIGSLEPEDFAVYYCQQRSNWPRTFGQGTKVEIK
notes: Human IgG kappa monoclonal from HuMab mouse hybridoma
[7]
  binding result: no binding

B5: 358-11 (antibody, V domains shown)
VH: QVQLVESGGGVVQPGRSLRLSCAASGFTFSNYGIHWVRQAPGKGLEWVAIIWHDGSNSYYVDSVKGRFTMSRDNSKNTVYLQMNSLRAEDTAVYFCARIIGGAFDIWGQGTMVTVSS
VL: B1 VL with G50A, Y96I, K103R
notes: as for B4
[7]
  binding result: no binding

B6: 306-155 (antibody, V domains shown)
VH: EVQLVQSGAEVKKPGESLKISCKGSGYSFTSYWIGWVRQMPGKGLEWMGIIYPGDSDTRYSPSFQGQVTISADKSISTAYLQWSSLKASDTAMYYCARQGSGWYGNYFDYWGQGTLVTVSS
VL: B2 VL with V29F, R30S, I31R, S32G, T52A, F53S, A56V, G93D, M96P
notes: as for B1
[7]
  binding result: no binding

B7: 597-120 (antibody, V domains shown)
VH: EVHLVESGGGLVQSGGSLRLSCAASGFSISGYWMSWVRQAPGKGLEWVANIKQDGGEKYYGDSVKGRFTISRDNAENSLYLQMSSLRAEDTAVYYCVMAGGLDYWGQGALVTVSS
VL: EIVLTQSPATLSLSPGERATLSCRASQSVSSYLAWYQQKPGQAPRLLIYDASNRATGIPARFSGSGSGTDFTLTISSLEPEDFAVYYCQQRSNWYTFGQGTKLEIK
notes: as for B1
[7]
  binding result: no binding

B8: 114-41 (antibody, V domains shown)
VH: QVQLVQSGAEVKTPGASVKVSCKASGYTFTSFGISWVRQAPGQGLEWMGWISVYNDYTNYAQKFQGRVTMTTDTSTSTAYMELRSLRSDDTAMYYCARKRGGDMDYWGQGTLVTVSS
VL: B1 VL with L11V, G28D, Q38H, E41G, S46L, G50L, Y91A, Y94F, Y96W, L104V
notes: as for B1
[7]
  binding result: no binding

B9: 312-19 (antibody, V domains shown)
VH: QVQLVQSGAEVKKPGSSVKVSCKASGGTFNNFVIGWVRQAPGQGLEWMGRIIPILDIANYAQKFQGRVTITADKSTSTVYMELNSLRSEDTAVYYCARTGNYYKPYDYWGQGTLVTVSS
VL: EIVLTQSPDFQSVTPKEKVTITCRASQSIGSSLHWYQQKPDQSPKLLIKYASQSFSGVPSRFSGSGSGTDFTLTINSLEAEDAAAYYCHQSSSLPITFGQGTRLEIK
notes: as for B1
[7]
  binding result: no binding

B10: 591-37 (antibody, V domains shown)
VH: EVQLVQSGGGLVHPGGSLRLSCAGSGFTFSRYALHWVRQAPGKGLEWVSAIGIGGGTFYADSVKGRFTISRDNAKNSLYLQMNSLRAEDMAVYYCARDTYYDFFDAFDIWGQGTMVTVSS
VL: B1 VL with G50A, N92D, Y96L, Q100G, L104V
notes: as for B4
[7]
  binding result: no binding

B11: 591-33 (antibody, V domains shown)
VH: EVQLVESGGGLVQPGGSLRLSCAASGFTFSRYWMSWVRQAPGKGLEWMANIKQDGSETHYVDSVKGRFTISRDNAKNSLYLQMNSLRAEDTAVYYCAIGDYWGQGTLVTVSS
VL: B1 VL with G28D, G50A, N92K, Y96L, Q100G, L104V
notes: as for B4
[7]
  binding result: no binding

Reference: patent US20150322167A1 (UNIVERSITY OF MASSACHUSETTS, published 2015)
